This is an account of results in publication doi:10.1101/2022.01.04.474899 (bioRxiv, 2022).

The series concerns the molecule itself. In words: SDS-PAGE immunoblot. On the technique in general: In western blotting, separated proteins are transferred to a membrane and probed.

B1: recombinant human asprosin with C-terminal 2×Strep-tag II (natural protein, UniProt P35555 2732-2871, looked up)
chain: STNETDASNIEDQSETEANVSLASWDVEKTAIFAFNISHVSNKVRILELLPALTTLTNHNRYLIESGNEDGFFKINQKEGISYLHFTKKKPVAGTYSLQISSTPLYKKKELNQLEDKYDKDYLSGELGDNLKMKIQVLLH
As usually defined, the stoichiometry N is the number of molecules, sites or subunits per partner or assembly. Take B1: the “stoichiometry N” value is 4.
